The source of these data is paper PMC3499988 (Biochemistry, 2011).

Like-named read-outs stand apart in the source and are kept apart here.

Holding throughout (assay): SPR
Assay [1] addresses T1, HIV-1 YU-2 gp120 (HIV-1 (YU-2), UniProt P35961).
Assay [2] has as its target T2, HIV-1 HXBc2 gp120 (HIV-1 (HXBc2), UniProt P04578).
The target in assay [3] is T1, HIV-1 YU-2 gp120. The source holds these as a separate data set.
Assay [4] concerns the target T2, HIV-1 HXBc2 gp120. This is another data set of the same source.
The target in assay [5] is T1, HIV-1 YU-2 gp120. The source holds these as a separate data set.
In assay [6] the target is T2, HIV-1 HXBc2 gp120. The source holds these as a separate data set.

B1: Fab m18 (wild type) (Fab, V domains shown)
VH: VQLLESGPGVVKPSETLSLTCTVSGASVNNYYWTWVRQPPGKGLEWIGNVYDSGDTNYNPSLSSRLSLSMDTSKNQFSLRLSSVTAADTATYYCARYHRHFIRGPLSFDYWGRGTLVTVSS
VL: LQMTQSPSFLSASVGDRVSITCRASQDIQKFLAWYQLTPGDAPKLLMYSASTLQSGVPSRFSGSGSGTEFTLTISGLQPEDFATYYCQHLKRYPYTFGQGTKLEIS
With B1, the values for the Kd in assay [1] and in assay [2] were 1.4 nM and 4.3 nM, respectively. Also, the koff in assay [1] is 9.8e-05 s⁻¹; in assay [2] it was 0.00022 ± 0.9 s⁻¹. The kon in assay [1] worked out at 69000 ± 0.3 M⁻¹ s⁻¹; in assay [2] it was 52000 ± 2.2 M⁻¹ s⁻¹. Besides, the IC50 in assay [3] came to 33 ± 3.6 nM; in assay [4], 36.1 ± 12.9 nM; in assay [5], 36 ± 1.2 nM; in assay [6], 56.9 ± 13 nM.

B2: Fab m18 F99Y (HCDR3) (Fab, V domains shown)
VH: VQLLESGPGVVKPSETLSLTCTVSGASVNNYYWTWVRQPPGKGLEWIGNVYDSGDTNYNPSLSSRLSLSMDTSKNQFSLRLSSVTAADTATYYCARYHRHYIRGPLSFDYWGRGTLVTVSS
VL: LQMTQSPSFLSASVGDRVSITCRASQDIQKFLAWYQLTPGDAPKLLMYSASTLQSGVPSRFSGSGSGTEFTLTISGLQPEDFATYYCQHLKRYPYTFGQGTKLEIS
With B2, the Kd in assay [1] is 1.1 nM; in assay [2], 0.9 nM. The koff was 0.00011 ± 0.9 s⁻¹ in assay [1] and 9.2e-05 s⁻¹ in assay [2]. Further, the kon amounted to 94000 ± 2.5 M⁻¹ s⁻¹ in assay [1] and 100000 ± 0.03 M⁻¹ s⁻¹ in assay [2]. Besides, the IC50 came to 53.7 ± 1.5 nM in assay [3], 62.8 ± 12.3 nM in assay [4], 75.3 ± 20.6 nM in assay [5] and 66.7 ± 6.1 nM in assay [6].

B3: Fab m18 K31A (LCDR1) (Fab, V domains shown)
VH: VQLLESGPGVVKPSETLSLTCTVSGASVNNYYWTWVRQPPGKGLEWIGNVYDSGDTNYNPSLSSRLSLSMDTSKNQFSLRLSSVTAADTATYYCARYHRHFIRGPLSFDYWGRGTLVTVSS
VL: LQMTQSPSFLSASVGDRVSITCRASQDIQAFLAWYQLTPGDAPKLLMYSASTLQSGVPSRFSGSGSGTEFTLTISGLQPEDFATYYCQHLKRYPYTFGQGTKLEIS
Regarding B3, the values for the Kd in assay [1] and in assay [2] were 3.1 nM and 18.7 nM, respectively. Moreover, the values for the koff in assay [1] and in assay [2] were 8.9e-05 s⁻¹ and 0.00031 ± 1.1 s⁻¹, respectively. Further, the kon in assay [1] was determined as 29000 ± 0.4 M⁻¹ s⁻¹; in assay [2], 17000 ± 0.5 M⁻¹ s⁻¹. In addition, the IC50 in assay [3], in assay [4], in assay [5] and in assay [6] was greater than 500 nM in each case.

B4: Fab m18 S52A (LCDR2) (Fab, V domains shown)
VH: VQLLESGPGVVKPSETLSLTCTVSGASVNNYYWTWVRQPPGKGLEWIGNVYDSGDTNYNPSLSSRLSLSMDTSKNQFSLRLSSVTAADTATYYCARYHRHFIRGPLSFDYWGRGTLVTVSS
VL: LQMTQSPSFLSASVGDRVSITCRASQDIQKFLAWYQLTPGDAPKLLMYSAATLQSGVPSRFSGSGSGTEFTLTISGLQPEDFATYYCQHLKRYPYTFGQGTKLEIS
For the molecule B4, the Kd in assay [1] worked out at 4.7 nM; in assay [2], 0.6 nM. The values for the koff in assay [1] and in assay [2] were 8.1e-05 s⁻¹ and 2e-05 s⁻¹, respectively. Moreover, the kon amounted to 17000 ± 0.9 M⁻¹ s⁻¹ in assay [1] and 35000 ± 2.1 M⁻¹ s⁻¹ in assay [2]. Besides, the half-maximal inhibitory concentration (IC50) is no less than 500 nM in assay [3], greater than 360 nM in assay [4], greater than 500 nM in assay [5] and greater than 360 nM in assay [6].

B5: Fab m18 I100A (HCDR3) (Fab, V domains shown)
VH: VQLLESGPGVVKPSETLSLTCTVSGASVNNYYWTWVRQPPGKGLEWIGNVYDSGDTNYNPSLSSRLSLSMDTSKNQFSLRLSSVTAADTATYYCARYHRHFARGPLSFDYWGRGTLVTVSS
VL: LQMTQSPSFLSASVGDRVSITCRASQDIQKFLAWYQLTPGDAPKLLMYSASTLQSGVPSRFSGSGSGTEFTLTISGLQPEDFATYYCQHLKRYPYTFGQGTKLEIS
Take B5: the figures for the Kd in assay [1] and in assay [2] were 13.1 nM and 2.8 nM, respectively. The results for the koff in assay [1] and in assay [2] were 0.00036 ± 1.4 s⁻¹ and 4.6e-05 s⁻¹, respectively. Further, the results for the kon in assay [1] and in assay [2] were 27000 ± 1.3 M⁻¹ s⁻¹ and 17000 ± 0.07 M⁻¹ s⁻¹, respectively. The IC50 in assay [3], in assay [4], in assay [5] and in assay [6] was greater than 500 nM in each case.
